In paper PMC12447786:

Biological target: Cys SARS2 Nsp1, fluorescein-labelled (SARS-CoV-2) (UniProt P0DTD1)
Test: fluorescence polarisation

## 40S ribosomal subunit purified from rabbit reticulocytes (complex)
  Kd: 27 nM
